From IntAct's records for PubMed 28712572

The substances below were run against gbrap_human GABARAP (UniProt O95166).
gbrap_human GABARAP, sequence (O95166 whole entry): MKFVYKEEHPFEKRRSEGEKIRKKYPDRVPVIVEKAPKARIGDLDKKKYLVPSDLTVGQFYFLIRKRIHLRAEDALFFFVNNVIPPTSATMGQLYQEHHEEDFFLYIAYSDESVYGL
For “Pericentriolar material 1 protein (Homo sapiens), Q15154 D1959A”, the “effect of a mutation on the interaction” value was “with no effect”. “Pericentriolar material 1 protein (Homo sapiens), Q15154 D1959C” was tested, and the “effect of a mutation on the interaction” value was “with no effect”. In the case of “Pericentriolar material 1 protein (Homo sapiens), Q15154 D1959E”, the “effect of a mutation on the interaction” value is reported as “with no effect”. With “Pericentriolar material 1 protein (Homo sapiens), Q15154 D1959F” the “effect of a mutation on the interaction” value was “with no effect”. “Pericentriolar material 1 protein (Homo sapiens), Q15154 D1959G” was tested, and the “effect of a mutation on the interaction” value was “with no effect”. “Pericentriolar material 1 protein (Homo sapiens), Q15154 D1959H” was tested, and the “effect of a mutation on the interaction” value was “with no effect”. For “Pericentriolar material 1 protein (Homo sapiens), Q15154 D1959I”, the “effect of a mutation on the interaction” value was “with no effect”. With “Pericentriolar material 1 protein (Homo sapiens), Q15154 D1959K” the “effect of a mutation on the interaction” value was “decreasing interaction strength”. In the case of “Pericentriolar material 1 protein (Homo sapiens), Q15154 D1959L”, the “effect of a mutation on the interaction” value is reported as “with no effect”. “Pericentriolar material 1 protein (Homo sapiens), Q15154 D1959M” was tested, and the “effect of a mutation on the interaction” value was “with no effect”. In the case of “Pericentriolar material 1 protein (Homo sapiens), Q15154 D1959N”, the “effect of a mutation on the interaction” value is reported as “with no effect”. With “Pericentriolar material 1 protein (Homo sapiens), Q15154 D1959P” the “effect of a mutation on the interaction” value was “with no effect”. In the case of “Pericentriolar material 1 protein (Homo sapiens), Q15154 D1959Q”, the “effect of a mutation on the interaction” value is reported as “with no effect”. “Pericentriolar material 1 protein (Homo sapiens), Q15154 D1959R” was tested, and the “effect of a mutation on the interaction” value was “with no effect”. “Pericentriolar material 1 protein (Homo sapiens), Q15154 D1959S” was tested, and the “effect of a mutation on the interaction” value was “with no effect”. In the case of “Pericentriolar material 1 protein (Homo sapiens), Q15154 D1959T”, the “effect of a mutation on the interaction” value is reported as “with no effect”. In the case of “Pericentriolar material 1 protein (Homo sapiens), Q15154 D1959V”, the “effect of a mutation on the interaction” value is reported as “decreasing interaction strength”. “Pericentriolar material 1 protein (Homo sapiens), Q15154 D1959W” was tested, and the “effect of a mutation on the interaction” value was “with no effect”. “Pericentriolar material 1 protein (Homo sapiens), Q15154 D1959Y” was tested, and the “effect of a mutation on the interaction” value was “with no effect”. “Pericentriolar material 1 protein (Homo sapiens), Q15154 D1962A” was tested, and the “effect of a mutation on the interaction” value was “with no effect”. For “Pericentriolar material 1 protein (Homo sapiens), Q15154 D1962C”, the “effect of a mutation on the interaction” value was “with no effect”. With “Pericentriolar material 1 protein (Homo sapiens), Q15154 D1962E” the “effect of a mutation on the interaction” value was “with no effect”. With “Pericentriolar material 1 protein (Homo sapiens), Q15154 D1962F” the “effect of a mutation on the interaction” value was “with no effect”. “Pericentriolar material 1 protein (Homo sapiens), Q15154 D1962G” was tested, and the “effect of a mutation on the interaction” value was “with no effect”. With “Pericentriolar material 1 protein (Homo sapiens), Q15154 D1962H” the “effect of a mutation on the interaction” value was “decreasing interaction strength”. In the case of “Pericentriolar material 1 protein (Homo sapiens), Q15154 D1962I”, the “effect of a mutation on the interaction” value is reported as “disrupting interaction strength”. “Pericentriolar material 1 protein (Homo sapiens), Q15154 D1962K” was tested, and the “effect of a mutation on the interaction” value was “disrupting interaction strength”. For “Pericentriolar material 1 protein (Homo sapiens), Q15154 D1962L”, the “effect of a mutation on the interaction” value was “disrupting interaction strength”. For “Pericentriolar material 1 protein (Homo sapiens), Q15154 D1962M”, the “effect of a mutation on the interaction” value was “decreasing interaction strength”. In the case of “Pericentriolar material 1 protein (Homo sapiens), Q15154 D1962N”, the “effect of a mutation on the interaction” value is reported as “decreasing interaction strength”. For “Pericentriolar material 1 protein (Homo sapiens), Q15154 D1962P”, the “effect of a mutation on the interaction” value was “disrupting interaction strength”. In the case of “Pericentriolar material 1 protein (Homo sapiens), Q15154 D1962Q”, the “effect of a mutation on the interaction” value is reported as “decreasing interaction strength”. “Pericentriolar material 1 protein (Homo sapiens), Q15154 D1962R” was tested, and the “effect of a mutation on the interaction” value was “decreasing interaction strength”. With “Pericentriolar material 1 protein (Homo sapiens), Q15154 D1962S” the “effect of a mutation on the interaction” value was “with no effect”. In the case of “Pericentriolar material 1 protein (Homo sapiens), Q15154 D1962T”, the “effect of a mutation on the interaction” value is reported as “with no effect”. In the case of “Pericentriolar material 1 protein (Homo sapiens), Q15154 D1962V”, the “effect of a mutation on the interaction” value is reported as “disrupting interaction strength”. With “Pericentriolar material 1 protein (Homo sapiens), Q15154 D1962W” the “effect of a mutation on the interaction” value was “with no effect”. With “Pericentriolar material 1 protein (Homo sapiens), Q15154 D1962Y” the “effect of a mutation on the interaction” value was “disrupting interaction strength”. For “Pericentriolar material 1 protein (Homo sapiens), Q15154 D1968A”, the “effect of a mutation on the interaction” value was “with no effect”. For “Pericentriolar material 1 protein (Homo sapiens), Q15154 D1968C”, the “effect of a mutation on the interaction” value was “with no effect”. “Pericentriolar material 1 protein (Homo sapiens), Q15154 D1968E” was tested, and the “effect of a mutation on the interaction” value was “with no effect”. In the case of “Pericentriolar material 1 protein (Homo sapiens), Q15154 D1968F”, the “effect of a mutation on the interaction” value is reported as “with no effect”. In the case of “Pericentriolar material 1 protein (Homo sapiens), Q15154 D1968G”, the “effect of a mutation on the interaction” value is reported as “with no effect”. In the case of “Pericentriolar material 1 protein (Homo sapiens), Q15154 D1968H”, the “effect of a mutation on the interaction” value is reported as “with no effect”. With “Pericentriolar material 1 protein (Homo sapiens), Q15154 D1968I” the “effect of a mutation on the interaction” value was “with no effect”. With “Pericentriolar material 1 protein (Homo sapiens), Q15154 D1968K” the “effect of a mutation on the interaction” value was “with no effect”. “Pericentriolar material 1 protein (Homo sapiens), Q15154 D1968L” was tested, and the “effect of a mutation on the interaction” value was “with no effect”. In the case of “Pericentriolar material 1 protein (Homo sapiens), Q15154 D1968M”, the “effect of a mutation on the interaction” value is reported as “with no effect”. “Pericentriolar material 1 protein (Homo sapiens), Q15154 D1968N” was tested, and the “effect of a mutation on the interaction” value was “with no effect”. “Pericentriolar material 1 protein (Homo sapiens), Q15154 D1968P” was tested, and the “effect of a mutation on the interaction” value was “with no effect”. “Pericentriolar material 1 protein (Homo sapiens), Q15154 D1968Q” was tested, and the “effect of a mutation on the interaction” value was “with no effect”. For “Pericentriolar material 1 protein (Homo sapiens), Q15154 D1968R”, the “effect of a mutation on the interaction” value was “with no effect”. With “Pericentriolar material 1 protein (Homo sapiens), Q15154 D1968S” the “effect of a mutation on the interaction” value was “with no effect”. For “Pericentriolar material 1 protein (Homo sapiens), Q15154 D1968T”, the “effect of a mutation on the interaction” value was “with no effect”. For “Pericentriolar material 1 protein (Homo sapiens), Q15154 D1968V”, the “effect of a mutation on the interaction” value was “with no effect”. In the case of “Pericentriolar material 1 protein (Homo sapiens), Q15154 D1968W”, the “effect of a mutation on the interaction” value is reported as “with no effect”. For “Pericentriolar material 1 protein (Homo sapiens), Q15154 D1968Y”, the “effect of a mutation on the interaction” value was “with no effect”. “Pericentriolar material 1 protein (Homo sapiens), Q15154 E1960A” was tested, and the “effect of a mutation on the interaction” value was “with no effect”. “Pericentriolar material 1 protein (Homo sapiens), Q15154 E1960C” was tested, and the “effect of a mutation on the interaction” value was “with no effect”. For “Pericentriolar material 1 protein (Homo sapiens), Q15154 E1960D”, the “effect of a mutation on the interaction” value was “with no effect”. With “Pericentriolar material 1 protein (Homo sapiens), Q15154 E1960F” the “effect of a mutation on the interaction” value was “with no effect”. In the case of “Pericentriolar material 1 protein (Homo sapiens), Q15154 E1960G”, the “effect of a mutation on the interaction” value is reported as “with no effect”. In the case of “Pericentriolar material 1 protein (Homo sapiens), Q15154 E1960H”, the “effect of a mutation on the interaction” value is reported as “with no effect”. With “Pericentriolar material 1 protein (Homo sapiens), Q15154 E1960I” the “effect of a mutation on the interaction” value was “with no effect”.
